Experiment: soluble fraction after stress (log2 fold change); higher = more stays soluble; pooled small domains, quantitative proteomics
Settings: stress: 75 degC
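Further: 20 min heating vs room temperature control held 20 min.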

| Sequence | soluble fraction (log2) |
| --- | --- |
| HMLAVSVDKDGKVYIQDSETAVDAVTAKLRAISGNNSEIRIFVRGDADVNYGRIMEIMGVINAAGFRKVAL | -0.111 |
| HMDFRVGVWVELVQQRRSVRTQLTWVSPQHTLFLFTAKDGSTQSMTLRMRDKLLAEGNLRIVAPPSR | -2.37 |
| HMEKSSALRAKEAFMALYHDGKFKPGTKIPSESNMAELLGVSRETWRKALALLRGDGVLYSKHGSGTYLLE | 0.254 |
| HMFSVVDKITLQEELKKLSKKEQLLIQLRYYDELNQEEIAKIFHVSQVQISRMEKKIIEKLKKQF | -3.44 |
| HMPTEAIVLQQIQIRQSPSGNSKSLQQILPGAKIKITSESSVKGWKQVSLDGGQKGWIPTAAIGL | -0.499 |
| HMTYKHLTIDEMKRFLSTREDSQSALVQFARVENVVGNRKGKYAVIKKWFLKNYKEEYNAFLS | 0.0231 |
| HMTTQTTKYVNTTAGLNVRTGPSTSYAKIVTLSYGQSVNVLSTSNGWSKINYNGSTGYVSSQYLQSTKPS | -2.28 |
| HMSRMLTVKQREVFDLAMREGYWETPRRITLTMLASLLSVSKSTLSVQLHKIEGTVLSSFSDEVRRRS | -1.87 |
| HMAAPPPLSDYRNMQEAEHIRNILLQHHGNVRRAAAALELSRPYLYQKMKQLGINIAELRELSLSHSS | -1.03 |
| HMKILVTDDNIRIDKYLTTQTEYSRSTIQKMIESNNILVNNKPTKSNYILRNNDEITIDENFNEE | -0.00567 |
| HMISDAEWTIMKALWQSEDKKMTLKEIAEAVADSGWSYTTVRTMVGRLVEKEAIEADESHPRNFRYSAA | -1.2 |
| HMGALAITPDFVGQTREEAERFLRDLDLSFDIGGKGDRILRQEPVAGQRMNLDQPMKLWVGSMNA | 0.245 |
| HMYAGTWISESGQWKYRNDDGSFAKGWFQDLDSRWYYFDANGHMLSDTLTPDGYRLGEDGAWVND | 0.0742 |
| HMPSLILADEPTGNLDSRNSSEVIALLKNASKRYAQTIIMITHNRSIAQSADRVLQVSDGVLTDMG | 0.345 |
| HMKEQLLLGFKVRSLRGIDLGFVKFIEGSAFQSFLKTDLTIIPNVPNYVKKIDNVKKIILVDWESD | -2.8 |
| HMPQTNIYPNPAFDKLFVSNLENETNFKIMDLFGRTIINSKTKGEISISELKSGIYIIEINNFRQKFVK | -2.64 |
| HMAKNIEVPNLVGSTISVARNDLKQLGLHVIVRDSVWSEDKKIDTILEQFPEPGKKLKPEGVVQVVVSI | -0.909 |
| HMGDPVRVDKFLHDMNVGTRSQIRKLIKEKAVFVNDVVAKSGRVKVDPVVDQVRLGEQVITYQ | -0.245 |
| HMTSLSYINDLVTGATAQGLYRIVVPNQFMDDNMANVLRRTYGYQVQSRTSLMGTFDDYIISWAPPM | -2.9 |
| HMPQGFEDLTEREREVLTLIAEGRTNQEIADALVISIKTVNRHRENIMAKLNLHSRVELVRYAIAQGLI | -2.61 |

| Sequence | soluble fraction (log2) |
| --- | --- |
| HMDRSQRDQEQAQLIRLVQQAFDDSGQRYGAEKIRITLAEGGIRVSTKRIAAIMQELDLRSI | -2.41 |
| HMTNTDYPGKVVPVDPDGKTLKPDGDASYNDKPGTKVKTPTVPGYTAEVPNVEVPVGGGDIKVTYHKKPV | -0.0351 |
| HMSESEDFQNRWRPWRSLLDDETPVVREALVDQLKLFPEEGRLFLQQMSEEDDPISARHAFELIKSLGW | -0.363 |
| HMLRDMIIQSYRYYTDKERNPRQVWNRMEADAFWEIIRDYEGYNGDGYVHTKIIPEMEALTVIEMDN | -1.83 |
| HMSKKLLVLQTSDDAKAKDVLSQNGYQLDDGDKLSIIETEQTKMADVIKLLSDNAIDIEDVQHVH | 0.14 |
| HMADFIKEIKTNNPRQLLKSILSSFMPRALILELEMLLWNDLKSKPIGEWSNTQIENVGKLLNNWILKPAA | 0.162 |
| HMGMGDALRILFNQAMLIEREQYLQAGAYERNENPVNYANGFKAKTLNTRVGALEVAVPQTRDSAFYPSFL | 0.0631 |
| HMINFSKNIISDTTSIKEAIEILNIISGRDNHILFVLNDKRQLIGTLSDGDVRRGMLASKTISQSVTEVM | -0.402 |
| HMDILEVLIKKDLAMELLEQLTERQRTVVYLRYFYQLNQKEIADYLGISQQRVSEILSRAKAVLTAYTKK | -3 |
| HMEKTKLPNLVDFTYRQAEALLQTHGLKVGKVERVPDVGQTVIKAKYKGKVISWGTELNKGEKIDLVIGKG | -0.542 |
| HMTSTEQEILIEHMVDRLPALRKKYGISQTELGEKIGLSRQTISAIERKTTPLTWTTMLAILMFFT | -1.82 |
| HMGELDFYEEMRDDYLTGKIWNVGEIVEAKGMIGEIVRKGTNYISFVTDDNKVHKAWLHEIKL | -0.641 |
| HMAMNITQRHQEILAVIKQEKHITVSEISKLLGVSEVTIRKDFNYLEEKNLIYRHHGGASLNN | -2.78 |
| HMEGFSAGQFVRASVDNTAFYLKRPKGDAVADKLLRRGASMKVISASGDYLKVELDSGEVGFVPPVMVE | 0.0267 |
| HMNILNFSENIIKLRHKKGITQEELADFVGVTKASVSKWETKQSLPDIMLLPRLAAYFDVTVDELLGYEP | -2.16 |
| HMETIGENIKTYRQKKGYTQEEVANRLHVTRQTISKWEKNYSIPDAEVLVKLADVLEVQTSQLLGV | -0.374 |
| HMQLPDLDEIRQMRKRLDLSQRELAALAGVSQSLIAKIEKGSIDPSYDNVRKIFNAFENILKKRALE | -0.119 |
| HMRLDHIFSVVERLKGVSLGAGDRLEVQKYEDLLTVYKSKNALSSEEAQTLNDILASLLKMMAKYD | -1.05 |
| HMITGSIQPKNGKYYAVLNLYDHTGKRRPKWVSTGYTVKGNKKKAQEVLNELTRRYSAQLPPSK | -1.05 |

— the domain aggregation screens of Martell et al. (2025)
